Test results taken from publication PMC7036032 (Molecular cell, 2019).

B1: MBP-CPSF100 (460-486) (domain or fragment, human, UniProt Q9P2I0 460-486, looked up)
chain: SYPMFPAPEERIKWDEYGEIIKPEDFL
B2: human CPSF30-Fip1(1-243) complex (complex)
chain 1: MQEIIASVDHIKFDLEIAVEQQLGAQPLPFPGMDKSGAAVCEFFLKAACGKGGMCPFRHISGEKTVVCKHWLRGLCKKGDQCEFLHEYDMTKMPECYFYSKFGECSNKECPFLHIDPESKIKDCPWYDRGFCKHGPLCRHRHTRRVICVNYLVGFCPEGPSCKFMHPRFELPMGTTEQPPLPQQTQPPAKQRTPQVIGVMQSQNSSAGNRGPRPLEQVTCYKCGEKGHYANRCTKGHLAFLSGQ
chain 2: MSAGEVERLVSELSGGTGGDEEEEWLYGGPWDVHVHSDLAKDLDENEVERPEEENASANPPSGIEDETAENGVPKPKVTETEDDSDSDSDDDEDDVHVTIGDIKTGAPQYGSYGTAPVNLNIKTGGRVYGTTGTKVKGVDLDAPGSINGVPLLEVDLDSFEDKPWRKPGADLSDYFNYGFNEDTWKAYCEKQKRIRMGLEVIPVTSTTNKITAEDCTMEVTPGAEIQDGRFNLFKVQQGRTGN
B3: CPSF30 (isoform 2) (natural protein, human, UniProt O95639-2 1-244, looked up)
chain: MQEIIASVDHIKFDLEIAVEQQLGAQPLPFPGMDKSGAAVCEFFLKAACGKGGMCPFRHISGEKTVVCKHWLRGLCKKGDQCEFLHEYDMTKMPECYFYSKFGECSNKECPFLHIDPESKIKDCPWYDRGFCKHGPLCRHRHTRRVICVNYLVGFCPEGPSCKFMHPRFELPMGTTEQPPLPQQTQPPAKQRTPQVIGVMQSQNSSAGNRGPRPLEQVTCYKCGEKGHYANRCTKGHLAFLSGQ
B4: MBP-CPSF100 (full length) (natural protein, human, UniProt Q9P2I0 1-782, looked up)
chain: MTSIIKLTTLSGVQEESALCYLLQVDEFRFLLDCGWDEHFSMDIIDSLRKHVHQIDAVLLSHPDPLHLGALPYAVGKLGLNCAIYATIPVYKMGQMFMYDLYQSRHNTEDFTLFTLDDVDAAFDKIQQLKFSQIVNLKGKGHGLSITPLPAGHMIGGTIWKIVKDGEEEIVYAVDFNHKREIHLNGCSLEMLSRPSLLITDSFNATYVQPRRKQRDEQLLTNVLETLRGDGNVLIAVDTAGRVLELAQLLDQIWRTKDAGLGVYSLALLNNVSYNVVEFSKSQVEWMSDKLMRCFEDKRNNPFQFRHLSLCHGLSDLARVPSPKVVLASQPDLECGFSRDLFIQWCQDPKNSIILTYRTTPGTLARFLIDNPSEKITEIELRKRVKLEGKELEEYLEKEKLKKEAAKKLEQSKEADIDSSDESDIEEDIDQPSAHKTKHDLMMKGEGSRKGSFFKQAKKSYPMFPAPEERIKWDEYGEIIKPEDFLVPELQATEEEKSKLESGLTNGDEPMDQDLSDVPTKCISTTESIEIKARVTYIDYEGRSDGDSIKKIINQMKPRQLIIVHGPPEASQDLAECCRAFGGKDIKVYMPKLHETVDATSETHIYQVRLKDSLVSSLQFCKAKDAELAWIDGVLDMRVSKVDTGVILEEGELKDDGEDSEMQVEAPSDSSVIAQQKAMKSLFGDDEKETGEESEIIPTLEPLPPHEVPGHQSVFMNEPRLSDFKQVLLREGIQAEFVGGVLVCNNQVAVRRTETGRIGLEGCLCQDFYRIRDLLYEQYAIV

How the values were obtained:
[1] = target: T1, human CPSF160-WDR33 (1-572) complex (human, UniProt Q10570 1-1443; Q9C0J8 1-572); test: pull-down
T1 sequence (Q10570 whole entry, chain 1 of 2): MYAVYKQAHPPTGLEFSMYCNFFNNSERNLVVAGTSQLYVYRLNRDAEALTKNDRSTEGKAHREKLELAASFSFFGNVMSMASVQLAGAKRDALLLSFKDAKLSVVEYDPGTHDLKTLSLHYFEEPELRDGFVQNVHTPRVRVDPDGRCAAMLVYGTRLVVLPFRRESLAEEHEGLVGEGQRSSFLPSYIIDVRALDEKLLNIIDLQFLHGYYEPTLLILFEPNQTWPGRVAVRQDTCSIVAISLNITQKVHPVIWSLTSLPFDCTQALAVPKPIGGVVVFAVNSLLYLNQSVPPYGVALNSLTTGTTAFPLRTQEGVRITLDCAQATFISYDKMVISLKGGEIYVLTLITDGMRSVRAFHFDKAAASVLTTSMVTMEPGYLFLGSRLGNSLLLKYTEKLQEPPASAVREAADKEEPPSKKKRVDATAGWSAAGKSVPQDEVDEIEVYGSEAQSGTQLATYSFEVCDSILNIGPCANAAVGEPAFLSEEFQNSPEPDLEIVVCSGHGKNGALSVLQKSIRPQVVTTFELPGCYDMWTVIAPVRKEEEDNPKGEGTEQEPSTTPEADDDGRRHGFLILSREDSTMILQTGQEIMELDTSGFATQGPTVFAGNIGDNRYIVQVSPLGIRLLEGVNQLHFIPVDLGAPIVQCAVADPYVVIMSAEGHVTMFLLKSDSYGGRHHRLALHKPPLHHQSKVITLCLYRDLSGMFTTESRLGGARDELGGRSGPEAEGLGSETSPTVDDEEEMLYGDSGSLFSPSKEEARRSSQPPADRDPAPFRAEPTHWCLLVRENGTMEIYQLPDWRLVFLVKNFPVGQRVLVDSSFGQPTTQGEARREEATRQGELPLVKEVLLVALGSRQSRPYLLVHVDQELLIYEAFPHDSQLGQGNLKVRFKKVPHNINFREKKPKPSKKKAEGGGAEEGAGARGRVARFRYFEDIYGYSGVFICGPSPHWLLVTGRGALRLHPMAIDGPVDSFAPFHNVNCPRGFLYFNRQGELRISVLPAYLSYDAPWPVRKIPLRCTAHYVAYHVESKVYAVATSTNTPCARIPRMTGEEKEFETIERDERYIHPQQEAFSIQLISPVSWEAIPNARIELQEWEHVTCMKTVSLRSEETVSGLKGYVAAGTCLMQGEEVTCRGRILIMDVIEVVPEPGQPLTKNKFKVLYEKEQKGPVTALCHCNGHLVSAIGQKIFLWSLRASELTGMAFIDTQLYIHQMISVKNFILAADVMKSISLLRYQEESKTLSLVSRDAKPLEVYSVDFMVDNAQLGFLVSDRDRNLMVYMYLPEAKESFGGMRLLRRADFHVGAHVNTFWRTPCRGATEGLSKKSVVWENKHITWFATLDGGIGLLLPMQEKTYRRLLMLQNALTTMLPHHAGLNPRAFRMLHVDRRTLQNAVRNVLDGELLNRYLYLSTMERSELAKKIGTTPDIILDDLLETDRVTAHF
T1 sequence (Q9C0J8 1-572, chain 2 of 2): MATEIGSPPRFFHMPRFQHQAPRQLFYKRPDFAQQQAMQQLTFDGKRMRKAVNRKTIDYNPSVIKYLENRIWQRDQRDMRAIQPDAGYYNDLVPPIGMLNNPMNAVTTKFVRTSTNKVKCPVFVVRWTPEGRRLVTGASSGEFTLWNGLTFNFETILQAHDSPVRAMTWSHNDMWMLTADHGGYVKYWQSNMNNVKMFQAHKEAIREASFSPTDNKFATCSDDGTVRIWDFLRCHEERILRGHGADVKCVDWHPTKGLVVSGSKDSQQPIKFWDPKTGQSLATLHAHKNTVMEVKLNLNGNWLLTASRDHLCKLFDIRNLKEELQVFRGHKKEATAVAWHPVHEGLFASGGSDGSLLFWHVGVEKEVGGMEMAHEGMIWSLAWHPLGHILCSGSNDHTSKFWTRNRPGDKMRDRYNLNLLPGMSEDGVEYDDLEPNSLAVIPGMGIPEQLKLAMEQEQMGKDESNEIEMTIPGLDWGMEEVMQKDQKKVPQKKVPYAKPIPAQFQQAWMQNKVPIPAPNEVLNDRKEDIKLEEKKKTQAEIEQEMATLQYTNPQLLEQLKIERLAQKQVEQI

[2] = target: T1, human CPSF160-WDR33 (1-572) complex; test: SEC
[3] = target: T1, human CPSF160-WDR33 (1-572) complex; test: cryo-EM structure

Binder | binding result [1] | other results
B1 | binds | –
B2 | – | binding result [2]: binds
B3 | – | binding result [3]: binds
B4 | binds | –
